US20230301926A1 (EVOX THERAPEUTICS, published 2023)

Columns and labels:
[1] = target: T1, human serum albumin (labelled with Alexa Fluor 488) (human, UniProt P02768 25-609, Alexa Fluor 488 label (site not stated)); experiment: Optiprep gradient and dot-blot of 4e10 HEK EVs incubated with 80 µg/ml Alexa Fluor 488 HSA
T1 construct: Used at 80 µg/ml in the Optiprep gradient / dot-blot assays; also called HSA
Description: This experiment was performed by incubating overnight at 4° C. 4e¹⁰ HEK EVs expressing the constructs detailed above with 80 µg/ml human serum albumin (labelled with Alexa Fluor 488) and a mix of tetraspanin antibody. The next day, EVs were separated by Optiprep gradient ultracentrifugation and 300 µl fractions were collected, 100 µl from each fraction were used for DOTBLOT analysis and 50 µl from three subsequent fractions were pulled and used for imaging (widefield and dSTORM) […] (CD9, CD63 and CD81, 1:100) labelled with Alexa […].

FITC-human albumin = target: T2, FITC-human albumin (human, UniProt P02768 25-609, FITC label (site not stated)); experiment: in vitro albumin binding assay, protocol of Example 7
T2 construct: also called fluorescein isothiocyanate (FITC)-labeled albumin; FITC-albumin
T2 sequence (P02768 25-609 limits assumed): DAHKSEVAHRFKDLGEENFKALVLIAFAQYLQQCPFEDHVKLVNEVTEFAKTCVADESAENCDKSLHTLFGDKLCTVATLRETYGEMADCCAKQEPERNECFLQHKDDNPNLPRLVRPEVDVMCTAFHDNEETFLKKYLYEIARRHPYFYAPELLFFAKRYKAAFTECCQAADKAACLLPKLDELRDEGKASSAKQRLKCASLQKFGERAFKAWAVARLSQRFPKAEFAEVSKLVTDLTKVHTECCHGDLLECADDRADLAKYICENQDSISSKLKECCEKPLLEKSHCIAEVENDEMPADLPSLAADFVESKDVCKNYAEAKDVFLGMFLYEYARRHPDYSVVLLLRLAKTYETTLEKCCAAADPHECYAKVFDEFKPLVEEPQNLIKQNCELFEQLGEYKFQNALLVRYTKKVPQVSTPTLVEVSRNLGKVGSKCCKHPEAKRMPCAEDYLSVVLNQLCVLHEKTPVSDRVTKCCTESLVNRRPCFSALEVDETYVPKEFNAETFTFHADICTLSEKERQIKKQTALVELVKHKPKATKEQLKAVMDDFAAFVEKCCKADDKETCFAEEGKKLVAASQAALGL

mouse serum albumin = target: T3, mouse serum albumin (mouse, UniProt P07724 25-608); experiment: EVs recovered from mouse serum 10 min after injection, gradient separation and dot-blot with anti-mouse serum albumin antibody
T3 construct: Albumin picked up by the EVs in the circulation of the mice
Description: Mice were injected with mCD63-ABD-2nd loop Nluc HEK EVs or mCD63-Nluc (no ABD control). Serum was collected 10 minutes after injection and purified with size-exclusion columns (qEV) to isolate EVs. 2.5×10¹⁰ EVs were then incubated overnight at 4° C. with an antibody anti-mouse serum albumin (labelled with FITC) and a mix of tetraspanin antibodies (human specific CD9, CD63 and CD81, 1:100) labelled with Alexa Fluor 647. The next day, EVs were separated by Optiprep gradient ultracentrifugation and 300 µl fractions were collected, 100 µl from each fraction were used for DOTBLOT analysis and 50 µl from three subsequent fractions were pulled and used for imaging (widefield)

[2] = target: T1, human serum albumin (labelled with …); experiment: Optiprep gradient ultracentrifugation and dot-blot of EVs incubated with Alexa Fluor 488 HSA
Description: Gradient separation was performed to assess the binding of albumin to EVs expressing ABD on the surface. The fusion constructs tested were: [0235] mCD63-Nluc (concentration: 1.37×10¹² particles/ml) [0236] mCD63-ABD-2nd loop Nluc (concentration: 6.5×10¹¹ particles/ml)
HEK EVs with albumin binding domain fused to different or both CD63 loops were incubated overnight at 4° C. 5 µl with 80 µg/ml human serum albumin (labelled with Alexa Fluor 488) and a mix of tetrspanin antibodies (CD9, CD63 and CD81, 1:100) labelled with Alexa Fluor 647. The next day, EVs were separated by Optiprep gradient ultracentrifugation and 300 µl fractions were collected, 100 µl from each fraction were used for DOTBLOT analysis and 50 µl from three subsequent fractions were pooled and used for imaging (widefield and dSTORM)

T1 sequence (P02768 25-609 limits assumed): as above

B1: hCD9-ABD-1stloop-Nluc (other)
chain: MPVKGGTKCIKYLLFGFNFIFWLAGIAVLAIGLWLRFDSQTKSIMHLAEAKVLANRELDKYGVSDFYKRLINKAKTVEGVEALKLHILAALPMHFEQETNNNNSSFYTGVYILIGAGALMMLVGFLGCCGAVQESQCMLGLFFGFLLVIFAIEIAAAIWGYSHKDEVIKEVQEFYKDTYNKLKTKDEPQRETLKAIHYALNCCGLTRAGGVEQFISDICPKKDVLETFTVKSCPDAIKEVFDNKFHIIGAVGIGIAVVMIFGMIFSMILCCAIRRNREMVGSVFTLEDFVGDWRQTAGYNLDQVLEQGGVSSLFQNLGVSVTPIQRIVLSGENGLKIDIHVIIPYEGLSGDQMGQIEKIFKVVYPVDDHHFKVILHYGTLVIDGVTPNMIDYFGRPYEGIAVFDGKKITVTGTLWNGNKIIDERLINPDGSLLFRVTINGVTGWRLCERILA
notes: also called hCD9-ABD 1 st-Nluc
B1: binds [1].

B2: Lamp2b-ABD-NanoLuc (other)
chain: LKFEQHDEAVDANSLAEAKVLANRELDKYGVSDFYKRLINKAKTVEGVEALKLHILAALPFETGGAPMHISQAVHAAHAEINEAGRSIINFEKLCTSVYDFFVWLGRGHLLGRLAAIVGKQVLLGRKVVVVRSHCHWNDLAVIPAGVVHNWDFEPRKVSPSKPSFQEFVDWENVSPELNSTDQPFLCTGSGSGSGSGSLKPAGILIPIIVGAGLSGLIIVIVIAYVIGRRKSYAGAQTLGGGGSYIPEAPRDGQAYVRKDGEWVLLSTFLSPANGTPTPTPTPTGRSLYPSLEDLKVDKVIQAQTAFSANPANPAILSEASAPIPHDGNLYPRLYPELSQYMGLSLEGGQLGTPTPTPTPTGGSVFTLEDFVGDWRQTAGYNLDQVLEQGGVSSLFQNLGVSVTPIQRIVLSGENGLKIDIHVIIPYEGLSGDQMGQIEKIFKVVYPVDDHHFKVILHYGTLVIDGVTPNMIDYFGRPYEGIAVFDGKKITVTGTLWNGNKIIDERLINPDGSLLFRVTINGVTGWRLCERILA
notes: also called Lamp2B-ABD-Nluc; Lamp2b-ABD-Nluc
B2: binds [1]; binds (FITC-human albumin).

B3: hCD9-ABD-2ndloop-Nluc (other)
chain: MPVKGGTKCIKYLLFGFNFIFWLAGIAVLAIGLWLRFDSQTKSIMHFEQETNNNNSSFYTGVYILIGAGALMMLVGFLGCCGAVQESQCMLGLFFGFLLVIFAIEIAAAIWGYSHKDEVIKEVQEFYKDTYNKLKTKDEPQRETLKAIHYALNCCGLTRQHDEAVDANSLAEAKVLANRELDKYGVSDFYKRLINKAKTVEGVEALKLHILAALPTRAGGVEQFISDICPKKDVLETFTVKSCPDAIKEVFDNKFHIIGAVGIGIAVVMIFGMIFSMILCCAIRRNREMVGSVFTLEDFVGDWRQTAGYNLDQVLEQGGVSSLFQNLGVSVTPIQRIVLSGENGLKIDIHVIIPYEGLSGDQMGQIEKIFKVVYPVDDHHFKVILHYGTLVIDGVTPNMIDYFGRPYEGIAVFDGKKITVTGTLWNGNKIIDERLINPDGSLLFRVTINGVTGWRLCERILA
notes: also called hCD9-ABD 2 nd-Nluc
B3: binds [1].

B4: mCD63-ABD 2nd loop-NanoLuc (other)
chain: MAVEGGMKCVKFLLYVLLLAFCACAVGLIAIGVAVQVVLKQAMHITHETTAGSLLPVVIIAVGAFLFLVAFVGCCGACKENYCLMITFAIFLSLIMLVEVAVAIAGYVFRDQVKSEFNKSFQQQMQNYLKDNKTATILDKLQKENNCCGATRRTQHDEAVDANSLAEAKVLANRELDKYGVSDFYKRLINKAKTVEGVEALKLHILAALPRTCTSGTRSNYTDWENIPGMAKDRVPDSCCINITVGCGNDFKESTIHTQGCVETIAIWLRKNILLVAAAALGIAFVEVLGIIFSCCLVKSIRSGYEVMGSGSGSGSGSVFTLEDFVGDWRQTAGYNLDQVLEQGGVSSLFQNLGVSVTPIQRIVLSGENGLKIDIHVIIPYEGLSGDQMGQIEKIFKVVYPVDDHHFKVILHYGTLVIDGVTPNMIDYFGRPYEGIAVFDGKKITVTGTLWNGNKIIDERLINPDGSLLFRVTINGVTGWRLCERILAHHHHHH
notes: also called mCD63-ABD-2nd loop Nluc; mCD63-ABD 2nd loop-Nluc
B4: binds (mouse serum albumin).

B5: hCD9-ABD-2x-Nluc (ABD present in both loops) (other)
chain: MPVKGGTKCIKYLLFGFNFIFWLAGIAVLAIGLWLRFDSQTKSIMHLAEAKVLANRELDKYGVSDFYKRLINKAKTVEGVEALKLHILAALPMHFEQETNNNNSSFYTGVYILIGAGALMMLVGFLGCCGAVQESQCMLGLFFGFLLVIFAIEIAAAIWGYSHKDEVIKEVQEFYKDTYNKLKTKDEPQRETLKAIHYALNCCGLTRQHDEAVDANSLAEAKVLANRELDKYGVSDFYKRLINKAKTVEGVEALKLHILAALPTRAGGVEQFISDICPKKDVLETFTVKSCPDAIKEVFDNKFHIIGAVGIGIAVVMIFGMIFSMILCCAIRRNREMVGSVFTLEDFVGDWRQTAGYNLDQVLEQGGVSSLFQNLGVSVTPIQRIVLSGENGLKIDIHVIIPYEGLSGDQMGQIEKIFKVVYPVDDHHFKVILHYGTLVIDGVTPNMIDYFGRPYEGIAVFDGKKITVTGTLWNGNKIIDERLINPDGSLLFRVTINGVTGWRLCERILA
notes: also called hCD9-ABDX2-Nluc
B5: binds [1].

B6: hCD81-ABD-2ndloop-Nluc (other)
chain: MGVEGCTKCIKYLLFVFNFVFWLAGGVILGVALWLRHDPQTTNLLYLEMHLGDKPAPNTFYVGIYILIAVGAVMMFVGFLGCYGAIQESQCLLGTFFTCLVILFACEVAAGIWGFVNKDQIAKDVKQFYDQALQQAVVDDDANNAKAVVKTFHETLDCCGSTRQHDEAVDANSLAEAKVLANRELDKYGVSDFYKRLINKAKTVEGVEALKLHILAALPTRSTLTALTTSVLKNNLCPSGSNIISNLFKEDCHQKIDDLFSGKLYLIGIAAIVVAVIMIFEMILSMVLCCGIRNSSVYGSVFTLEDFVGDWRQTAGYNLDQVLEQGGVSSLFQNLGVSVTPIQRIVLSGENGLKIDIHVIIPYEGLSGDQMGQIEKIFKVVYPVDDHHFKVILHYGTLVIDGVTPNMIDYFGRPYEGIAVFDGKKITVTGTLWNGNKIIDERLINPDGSLLFRVTINGVTGWRLCERILA
notes: also called hCD81-ABD 2 nd-Nluc
B6: binds [1].

B7: hCD81-ABD-1stloop-Nluc (other)
chain: MGVEGCTKCIKYLLFVFNFVFWLAGGVILGVALWLRHDPQTTNLLYLEMHLAEAKVLANRELDKYGVSDFYKRLINKAKTVEGVEALKLHILAALPMHLGDKPAPNTFYVGIYILIAVGAVMMFVGFLGCYGAIQESQCLLGTFFTCLVILFACEVAAGIWGFVNKDQIAKDVKQFYDQALQQAVVDDDANNAKAVVKTFHETLDCCGSTRSTLTALTTSVLKNNLCPSGSNIISNLFKEDCHQKIDDLFSGKLYLIGIAAIVVAVIMIFEMILSMVLCCGIRNSSVYGSVFTLEDFVGDWRQTAGYNLDQVLEQGGVSSLFQNLGVSVTPIQRIVLSGENGLKIDIHVIIPYEGLSGDQMGQIEKIFKVVYPVDDHHFKVILHYGTLVIDGVTPNMIDYFGRPYEGIAVFDGKKITVTGTLWNGNKIIDERLINPDGSLLFRVTINGVTGWRLCERILA
notes: also called hCD81-ABD 1 st-Nluc
B7: binds [1].

B8: hCD81-ABD-2x-Nluc (ABD present in both loops) (other)
chain: MGVEGCTKCIKYLLFVFNFVFWLAGGVILGVALWLRHDPQTTNLLYLEMHLAEAKVLANRELDKYGVSDFYKRLINKAKTVEGVEALKLHILAALPMHLGDKPAPNTFYVGIYILIAVGAVMMFVGFLGCYGAIQESQCLLGTFFTCLVILFACEVAAGIWGFVNKDQIAKDVKQFYDQALQQAVVDDDANNAKAVVKTFHETLDCCGSTRQHDEAVDANSLAEAKVLANRELDKYGVSDFYKRLINKAKTVEGVEALKLHILAALPTRSTLTALTTSVLKNNLCPSGSNIISNLFKEDCHQKIDDLFSGKLYLIGIAAIVVAVIMIFEMILSMVLCCGIRNSSVYGSVFTLEDFVGDWRQTAGYNLDQVLEQGGVSSLFQNLGVSVTPIQRIVLSGENGLKIDIHVIIPYEGLSGDQMGQIEKIFKVVYPVDDHHFKVILHYGTLVIDGVTPNMIDYFGRPYEGIAVFDGKKITVTGTLWNGNKIIDERLINPDGSLLFRVTINGVTGWRLCERILA
notes: also called hCD81-ABDX2-Nluc
B8: binds [1].

B9: mCD63-NanoLuc (other)
chain: MAVEGGMKCVKFLLYVLLLAFCACAVGLIAIGVAVQVVLKQAMHITHETTAGSLLPVVIIAVGAFLFLVAFVGCCGACKENYCLMITFAIFLSLIMLVEVAVAIAGYVFRDQVKSEFNKSFQQQMQNYLKDNKTATILDKLQKENNCCGATRSNYTDWENIPGMAKDRVPDSCCINITVGCGNDFKESTIHTQGCVETIAIWLRKNILLVAAAALGIAFVEVLGIIFSCCLVKSIRSGYEVMGSGSGSGSGSVFTLEDFVGDWRQTAGYNLDQVLEQGGVSSLFQNLGVSVTPIQRIVLSGENGLKIDIHVIIPYEGLSGDQMGQIEKIFKVVYPVDDHHFKVILHYGTLVIDGVTPNMIDYFGRPYEGIAVFDGKKITVTGTLWNGNKIIDERLINPDGSLLFRVTINGVTGWRLCERILAHHHHHH
notes: Control fusion of CD63 and nanoluc reporter lacking ABD, carried on EVs in the assays; His tag of the entry is called optional; also called mCD63-Nluc; control EVs
B9: no binding (tested: 80 µg/ml human serum albumin) [2].
